For data set [1], the target named is mouse fibulin-2 construct S427-G545, three anaphylatoxin-like modules (mutant C500L) (mouse) (UniProt P37889). Description: SEC-MALS; 50 µL of ~2 mg/mL SEC purified protein on Superdex 200 Increase 10/300, 20 mM Tris-HCl pH 8, 150 mM NaCl, 0.5 mL/min. (In gel filtration, larger molecules generally elute earlier.)
Data set [2] concerns the molecule itself. Described as above.

For “mouse fibulin-2 construct S427-G545, three anaphylatoxin-like modules (mutant C500L) (from UniProt P37889 427-545) (domain or fragment)”, the stoichiometry N in data set [1] was found to be 2.

B1: mouse fibulin-2 construct S427-G545, three anaphylatoxin-like modules (wild-type) (domain or fragment, UniProt P37889 427-545, looked up)
chain: STKDLIETCCAAGQQWAIDNDECQEIPENGAQSDICRIAQRQCCISYLKEKSCVAGVMGAKEGETCGAEDNDTCGVSLYKQCCDCCGLGLRVRAEGQSCESNPNLGYPCNHVMLSCCEG
notes: fibulin-2, mouse, residues S427-G545 (three anaphylatoxin-like modules); numbering is according to the full-length protein; Homodimer linked by an inter-molecular disulfide bond via C500; 8 intra-molecular disulfide bonds in each chain; also called MH6M-S427-G545; pAS79 construct; source: E. coli BL21 (DE3) with the CyDisCo plasmid pMJS205 (Erv1p and PDI), purified (nickel IMAC, SEC); not shown: …
Take B1: in data set [2], the “stoichiometry N” value amounted to 2.

By stoichiometry N is commonly meant the number of molecules, sites or subunits per partner or assembly.
